One data set has as its target His-Rep68 WT (Adeno-associated virus 2 (AAV2), UniProt P03132 1-536). Briefly: size exclusion chromatography; somewhat less efficient than untagged; Anisotropy: 20 mM HEPES pH 7.5, 50 mM NaCl, 5 nM DNA, 20 C, 15 min. SEC: 25 mM Tris-HCl pH 8.0 (4 C), 200 mM NaCl, 5% glycerol, 1 mM TCEP, 16.6 uM protein, 30 min on ice. To be noted: protein: recombinant; tags: N-terminal His6-PreScission site; chain copies: 16. On the technique in general: Size exclusion chromatography separates by hydrodynamic size, large species first.

In data set [1] the target is T1, Rep40 (Adeno-associated virus 2 (AAV2), UniProt Q89269 1-312).
T1 sequence: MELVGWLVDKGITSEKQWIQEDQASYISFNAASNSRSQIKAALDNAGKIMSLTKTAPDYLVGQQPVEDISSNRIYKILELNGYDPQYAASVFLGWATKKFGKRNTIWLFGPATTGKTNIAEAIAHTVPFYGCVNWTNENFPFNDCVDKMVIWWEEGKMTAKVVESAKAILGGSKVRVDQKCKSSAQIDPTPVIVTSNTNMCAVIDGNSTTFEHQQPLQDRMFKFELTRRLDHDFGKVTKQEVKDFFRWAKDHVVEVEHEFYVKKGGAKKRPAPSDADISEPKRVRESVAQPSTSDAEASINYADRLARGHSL
Briefly: size exclusion chromatography; 2.8 or 16.6 uM ssDNA, 200 mM NaCl; ssDNA elutes free; Anisotropy: 20 mM HEPES pH 7.5, 50 mM NaCl, 5 nM DNA, 20 C, 15 min. SEC: 25 mM Tris-HCl pH 8.0 (4 C), 200 mM NaCl, 5% glycerol, 1 mM TCEP, 16.6 uM protein, 30 min on ice. As to conditions: protein: recombinant.

The target of data set [2] is T2, OID (OID-N208) (Adeno-associated virus 2 (AAV2), UniProt P03132 1-208). The description is as above. To be noted: protein: recombinant; chain copies: 2.
Data set [3] concerns the target T3, Rep68 (Adeno-associated virus 2 (AAV2), UniProt P03132 1-536). Briefly: size exclusion chromatography; sedimentation velocity; SAXS; cryo-EM; no nucleotide; apparent ~2.3 MDa; Anisotropy: 20 mM HEPES pH 7.5, 50 mM NaCl, 5 nM DNA, 20 C, 15 min. SEC: 25 mM Tris-HCl pH 8.0 (4 C), 200 mM NaCl, 5% glycerol, 1 mM TCEP, 16.6 uM protein, 30 min on ice. As to conditions: protein: recombinant; tags: untagged (His6-PreScission tag removed); chain copies: 16.

The target of data set [4] is T2, OID (OID-N208). Briefly: size exclusion chromatography; 2.8 or 16.6 uM RBS dsDNA, 200 mM NaCl; Anisotropy: 20 mM HEPES pH 7.5, 50 mM NaCl, 5 nM DNA, 20 C, 15 min. SEC: 25 mM Tris-HCl pH 8.0 (4 C), 200 mM NaCl, 5% glycerol, 1 mM TCEP, 16.6 uM protein, 30 min on ice. As to conditions: protein: recombinant; chain copies: 2; blunt.
Data set [5] deals with T3, Rep68. Briefly: size exclusion chromatography; sedimentation velocity; SAXS; apparent ~578 kDa; five Rep68 subunits; Anisotropy: 20 mM HEPES pH 7.5, 50 mM NaCl, 5 nM DNA, 20 C, 15 min. SEC: 25 mM Tris-HCl pH 8.0 (4 C), 200 mM NaCl, 5% glycerol, 1 mM TCEP, 16.6 uM protein, 30 min on ice. To be noted: protein: recombinant; tags: untagged (His6-PreScission tag removed); chain copies: 5; blunt.

The target of data set [6] is T3, Rep68. Briefly: fluorescence anisotropy; Anisotropy: 20 mM HEPES pH 7.5, 50 mM NaCl, 5 nM DNA, 20 C, 15 min. SEC: 25 mM Tris-HCl pH 8.0 (4 C), 200 mM NaCl, 5% glycerol, 1 mM TCEP, 16.6 uM protein, 30 min on ice. To be noted: protein: recombinant; tags: untagged (His6-PreScission tag removed); chain copies: 16; label: 5' 6-carboxyfluorescein. In general terms: Fluorescence polarisation rises when a labelled molecule tumbles more slowly, as on binding a larger partner.

In data set [7] the target is T1, Rep40. Described as above. As to conditions: protein: recombinant; label: 5' 6-carboxyfluorescein.
The target in data set [8] is T2, OID (OID-N208). Described as above. To be noted: protein: recombinant; chain copies: 2; label: 5' 6-carboxyfluorescein.
Data set [9] deals with the molecule itself. Briefly: cryo-EM structure; Rep68-heteroduplex complex purified by size-exclusion chromatography; 2D classification of a limited number of end views.
Data set [10] deals with the molecule itself. Briefly: cryo-EM structure; Rep68-ssDNA complex purified on Superose 6, about 0.4 mg/ml; 0.05% n-octyl β-D-glucopyranoside for side views; reference-free 2D alignment and classification only (no 3D map).
Data set [11] deals with the molecule itself. Briefly: AUC; with RBS dsDNA; sedimentation velocity (Rep68 1 mg/ml, 2.8 µM RBS dsDNA, buffer A, 45,000 rpm, 20°C) and sedimentation equilibrium (complex purified by gel filtration, OD260 0.25 or 0.75; 4,000, 5,000 and 7,000 rpm, 20°C).
Data set [12] deals with the molecule itself. Briefly: SEC; Superose 6 10/300 GL, buffer A (25 mM Tris-HCl pH 8.0, 200 mM NaCl, 5% glycerol, 1 mM TCEP); Rep protein 16.6 µM incubated with 2.8 µM ssDNA (polydT25) 30 min on ice; also with 1 mM ATP, ATP/CaCl2 or ATP/MgCl2 added (same complex).

The text below walks through data of publication PMC2702170, “DNA Structure Modulates the Oligomerization Properties of the AAV Initiator Protein Rep68” (PLoS Pathogens, 2009).

Numbering of substitutions follows the chain as printed. Numbers in names are those of the source.

What is called Kd is the concentration at which binding is half-saturated. By stoichiometry N is commonly meant a count of units in the complex or per binding partner.

B1: poly-dT25 ssDNA (ssDNA)
DNA: TTTTTTTTTTTTTTTTTTTTTTTTT
On to B1, for which the binding result with His-Rep68 WT was “binds”; in the data set with Rep40 [1], “no binding”; in the data set with OID (OID-N208) [2] it was “no binding”; with Rep68 [3], “binds”.

B2: RBS dsDNA (JM-2/JM-20) (dsDNA)
DNA 1: GCCTCAGTGAGCGAGCGAGCGCGCAGAG
DNA 2: CTCTGCGCGCTCGCTCGCTCACTGAGGC
For the molecule B2, the binding result with OID (OID-N208) [4] and with Rep68 [5] was “binds” throughout.

B3: poly-dT38 5'-FAM (ssDNA)
DNA: TTTTTTTTTTTTTTTTTTTTTTTTTTTTTTTTTTTTTT
As for B3, the results for the Kd with Rep68 [6], with Rep40 [7] and with OID (OID-N208) [8] were 23 nM, approximately 3500 nM and approximately 130 nM, respectively.

B4: Rep68 (adeno-associated virus 2), non-tagged (natural protein)
chain: MPGFYEIVIKVPSDLDGHLPGISDSFVNWVAEKEWELPPDSDMDLNLIEQAPLTVAEKLQRDFLTEWRRVSKAPEALFFVQFEKGESYFHMHVLVETTGVKSMVLGRFLSQIREKLIQRIYRGIEPTLPNWFAVTKTRNGAGGGNKVVDECYIPNYLLPKTQPELQWAWTNMEQYLSACLNLTERKRLVAQHLTHVSQTQEQNKENQNPNSDAPVIRSKTSARYMELVGWLVDKGITSEKQWIQEDQASYISFNAASNSRSQIKAALDNAGKIMSLTKTAPDYLVGQQPVEDISSNRIYKILELNGYDPQYAASVFLGWATKKFGKRNTIWLFGPATTGKTNIAEAIAHTVPFYGCVNWTNENFPFNDCVDKMVIWWEEGKMTAKVVESAKAILGGSKVRVDQKCKSSAQIDPTPVIVTSNTNMCAVIDGNSTTFEHQQPLQDRMFKFELTRRLDHDFGKVTKQEVKDFFRWAKDHVVEVEHEFYVKKGGAKKRPAPSDADISEPKRVRESVAQPSTSDAEASINYADRLARGHSL
notes: Rep68 protein of adeno-associated virus 2 (AAV2), GenBank AAC03774; Expressed as His6-PreScission site-Rep68; the His-PP tag was removed with PreScission protease; also called untagged Rep68; non-tagged Rep68; source: E. coli BL21(DE3)pLysS, purified (Ni column, PreScission cleavage, second Ni column, Superdex 200 gel filtration); not shown: His6, N-terminal, cleaved
Take B4: the entries for the “stoichiometry N” value in data set [9], in [10] and in data set [11] were 8, 16 and 5, respectively.

B5: His-Rep68 K404A (natural protein)
chain: B4 chain with K404A
notes: Rep68 protein of adeno-associated virus 2 (AAV2), GenBank AAC03774, with K404A; source: E. coli BL21(DE3)pLysS, purified (Ni column, Superdex 200 gel filtration); not shown: His6, N-terminal, kept
For B5, the binding result in [12] is listed as “binds”.

B6: His-Rep68 K406A (natural protein)
chain: B4 chain with K406A
notes: Rep68 protein of adeno-associated virus 2 (AAV2), GenBank AAC03774, with K406A; source: E. coli BL21(DE3)pLysS, purified (Ni column, Superdex 200 gel filtration); not shown: His6, N-terminal, kept
Regarding B6, the binding result in data set [12] is “binds”.
